According to the supplement of paper PMC5998384:

Legend:
[1] = test system: HeLa Kyoto; assay: solubility change mitosis vs G1/S (difference of NP-40 vs SDS log2 ratios) (log2 ratio difference); higher = more soluble in mitosis
[2] = test system: HeLa Kyoto; assay: thermal stability score vs G1/S (z-score of summed log2 fold changes over temperatures); higher = more thermally stable than in G1/S
[3] = test system: HeLa Kyoto; assay: solubility in G1/S (NP-40 vs SDS abundance) (log2 ratio); higher = more soluble; settings: cell cycle stage: G1/S
[4] = test system: HeLa Kyoto; assay: melting temperature (median over replicates), in situ; higher = more thermally stable
[5] = cell cycle stage: early G1 (4.5 h after nocodazole release)
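For melting temperature (median over replicates), in situ in this document: HeLa Kyoto cells synchronized by double thymidine or nocodazole block, proteins quantified by TMT10plex mass spectrometry, three independent biological replicates.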
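For solubility change mitosis vs G1/S (difference of NP-40 vs SDS log2 ratios) in this document: synchronized HeLa Kyoto cells (double thymidine block for G1/S, nocodazole release for mitosis), protein amounts in NP-40 versus SDS lysates quantified by mass spectrometry, three biological replicates.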
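For solubility in G1/S (NP-40 vs SDS abundance) in this document: HeLa Kyoto cells arrested at G1/S by double thymidine block, proteins quantified by TMT10plex mass spectrometry in mild NP-40 versus SDS extracts, three biological replicates.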
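For thermal stability score vs G1/S (z-score of summed log2 fold changes over temperatures) in this document: synchronized HeLa Kyoto cells, proteins quantified by TMT10plex mass spectrometry, three biological replicates, mitosis taken 0.5 h after nocodazole release, G1/S directly after double thymidine block.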

THBS1, sequence (chain, as listed by the source): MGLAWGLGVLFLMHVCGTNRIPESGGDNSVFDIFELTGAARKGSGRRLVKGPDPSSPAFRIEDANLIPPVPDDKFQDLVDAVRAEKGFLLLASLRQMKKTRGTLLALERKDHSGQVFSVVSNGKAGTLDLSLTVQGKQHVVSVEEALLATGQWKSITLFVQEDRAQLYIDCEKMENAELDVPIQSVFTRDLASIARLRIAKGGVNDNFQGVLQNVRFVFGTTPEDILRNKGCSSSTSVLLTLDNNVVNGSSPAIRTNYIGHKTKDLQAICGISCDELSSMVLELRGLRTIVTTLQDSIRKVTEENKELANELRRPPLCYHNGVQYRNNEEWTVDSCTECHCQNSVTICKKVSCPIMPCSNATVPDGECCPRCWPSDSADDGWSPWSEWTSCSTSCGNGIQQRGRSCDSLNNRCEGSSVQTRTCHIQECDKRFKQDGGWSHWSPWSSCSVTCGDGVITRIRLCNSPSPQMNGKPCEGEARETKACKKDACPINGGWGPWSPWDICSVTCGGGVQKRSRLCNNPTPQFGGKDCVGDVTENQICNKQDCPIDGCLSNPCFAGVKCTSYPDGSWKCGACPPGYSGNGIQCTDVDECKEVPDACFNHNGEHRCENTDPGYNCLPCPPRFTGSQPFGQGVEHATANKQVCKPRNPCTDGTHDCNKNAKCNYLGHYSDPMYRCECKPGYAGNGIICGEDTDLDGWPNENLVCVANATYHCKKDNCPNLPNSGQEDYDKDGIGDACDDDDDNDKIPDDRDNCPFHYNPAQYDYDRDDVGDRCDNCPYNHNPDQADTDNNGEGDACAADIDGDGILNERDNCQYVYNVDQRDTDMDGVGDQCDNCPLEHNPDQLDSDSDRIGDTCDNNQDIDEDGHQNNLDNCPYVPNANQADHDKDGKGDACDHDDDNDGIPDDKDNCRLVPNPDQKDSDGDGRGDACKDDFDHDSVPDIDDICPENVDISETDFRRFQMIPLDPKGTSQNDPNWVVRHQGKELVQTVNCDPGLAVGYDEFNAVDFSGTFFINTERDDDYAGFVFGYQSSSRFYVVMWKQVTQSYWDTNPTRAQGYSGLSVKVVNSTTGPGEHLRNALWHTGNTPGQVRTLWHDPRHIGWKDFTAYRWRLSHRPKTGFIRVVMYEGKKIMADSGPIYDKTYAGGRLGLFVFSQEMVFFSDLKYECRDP
HSPA5, sequence (chain, as listed by the source): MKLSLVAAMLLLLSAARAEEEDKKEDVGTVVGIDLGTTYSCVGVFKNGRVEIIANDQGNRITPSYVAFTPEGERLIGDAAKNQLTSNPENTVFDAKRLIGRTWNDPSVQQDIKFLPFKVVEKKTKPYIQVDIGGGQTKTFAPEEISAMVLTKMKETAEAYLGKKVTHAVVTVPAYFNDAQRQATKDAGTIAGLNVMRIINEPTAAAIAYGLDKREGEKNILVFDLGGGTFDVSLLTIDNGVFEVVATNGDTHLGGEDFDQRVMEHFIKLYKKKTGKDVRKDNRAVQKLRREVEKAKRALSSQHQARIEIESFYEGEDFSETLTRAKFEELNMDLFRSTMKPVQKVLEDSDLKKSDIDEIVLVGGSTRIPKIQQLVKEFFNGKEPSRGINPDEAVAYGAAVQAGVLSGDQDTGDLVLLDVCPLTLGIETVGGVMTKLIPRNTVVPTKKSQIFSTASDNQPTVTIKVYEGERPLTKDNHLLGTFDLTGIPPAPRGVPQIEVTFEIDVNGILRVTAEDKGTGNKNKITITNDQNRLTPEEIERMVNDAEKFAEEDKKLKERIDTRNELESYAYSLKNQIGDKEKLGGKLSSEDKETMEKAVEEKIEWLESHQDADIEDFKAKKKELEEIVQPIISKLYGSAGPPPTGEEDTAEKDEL
KCTD3, sequence (chain, as listed by the source): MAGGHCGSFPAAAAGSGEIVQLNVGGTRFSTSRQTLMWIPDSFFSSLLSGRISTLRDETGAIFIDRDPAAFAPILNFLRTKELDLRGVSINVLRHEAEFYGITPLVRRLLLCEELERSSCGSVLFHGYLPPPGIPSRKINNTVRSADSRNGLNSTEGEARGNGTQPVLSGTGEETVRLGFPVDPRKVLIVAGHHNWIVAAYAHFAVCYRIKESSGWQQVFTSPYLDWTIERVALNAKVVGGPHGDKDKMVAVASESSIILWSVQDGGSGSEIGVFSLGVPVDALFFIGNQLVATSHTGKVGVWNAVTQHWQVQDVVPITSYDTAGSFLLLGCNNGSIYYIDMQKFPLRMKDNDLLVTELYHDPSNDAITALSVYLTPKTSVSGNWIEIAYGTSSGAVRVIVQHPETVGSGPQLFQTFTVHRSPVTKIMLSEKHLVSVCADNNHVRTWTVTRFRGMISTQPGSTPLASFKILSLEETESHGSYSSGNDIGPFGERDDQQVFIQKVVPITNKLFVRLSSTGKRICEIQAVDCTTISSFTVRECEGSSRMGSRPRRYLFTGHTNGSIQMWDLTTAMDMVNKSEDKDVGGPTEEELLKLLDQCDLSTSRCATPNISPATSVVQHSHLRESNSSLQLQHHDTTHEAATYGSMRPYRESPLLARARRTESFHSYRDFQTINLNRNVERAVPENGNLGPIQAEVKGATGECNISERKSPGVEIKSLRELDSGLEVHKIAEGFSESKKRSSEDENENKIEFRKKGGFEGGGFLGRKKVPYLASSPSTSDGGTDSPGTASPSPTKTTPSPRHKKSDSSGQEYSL
HDGFRP2, sequence (chain, as listed by the source): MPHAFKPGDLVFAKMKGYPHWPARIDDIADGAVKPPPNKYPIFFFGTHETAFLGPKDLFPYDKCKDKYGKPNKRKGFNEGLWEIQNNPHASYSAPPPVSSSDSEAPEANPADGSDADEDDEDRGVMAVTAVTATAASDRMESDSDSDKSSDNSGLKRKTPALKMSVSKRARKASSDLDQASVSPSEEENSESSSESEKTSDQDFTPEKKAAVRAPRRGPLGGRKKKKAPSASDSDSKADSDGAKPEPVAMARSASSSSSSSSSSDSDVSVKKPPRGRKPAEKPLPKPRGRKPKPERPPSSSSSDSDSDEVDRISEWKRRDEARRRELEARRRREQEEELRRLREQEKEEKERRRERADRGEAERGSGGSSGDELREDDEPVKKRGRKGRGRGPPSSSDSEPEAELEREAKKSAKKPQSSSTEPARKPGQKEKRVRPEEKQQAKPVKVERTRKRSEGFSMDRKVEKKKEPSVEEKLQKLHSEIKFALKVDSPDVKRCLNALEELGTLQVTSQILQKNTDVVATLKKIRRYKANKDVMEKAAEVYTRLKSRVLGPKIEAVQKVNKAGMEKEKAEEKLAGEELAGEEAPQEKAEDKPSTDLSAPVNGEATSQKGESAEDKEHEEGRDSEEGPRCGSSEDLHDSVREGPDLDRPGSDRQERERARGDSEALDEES
HNRNPU, sequence (chain, as listed by the source): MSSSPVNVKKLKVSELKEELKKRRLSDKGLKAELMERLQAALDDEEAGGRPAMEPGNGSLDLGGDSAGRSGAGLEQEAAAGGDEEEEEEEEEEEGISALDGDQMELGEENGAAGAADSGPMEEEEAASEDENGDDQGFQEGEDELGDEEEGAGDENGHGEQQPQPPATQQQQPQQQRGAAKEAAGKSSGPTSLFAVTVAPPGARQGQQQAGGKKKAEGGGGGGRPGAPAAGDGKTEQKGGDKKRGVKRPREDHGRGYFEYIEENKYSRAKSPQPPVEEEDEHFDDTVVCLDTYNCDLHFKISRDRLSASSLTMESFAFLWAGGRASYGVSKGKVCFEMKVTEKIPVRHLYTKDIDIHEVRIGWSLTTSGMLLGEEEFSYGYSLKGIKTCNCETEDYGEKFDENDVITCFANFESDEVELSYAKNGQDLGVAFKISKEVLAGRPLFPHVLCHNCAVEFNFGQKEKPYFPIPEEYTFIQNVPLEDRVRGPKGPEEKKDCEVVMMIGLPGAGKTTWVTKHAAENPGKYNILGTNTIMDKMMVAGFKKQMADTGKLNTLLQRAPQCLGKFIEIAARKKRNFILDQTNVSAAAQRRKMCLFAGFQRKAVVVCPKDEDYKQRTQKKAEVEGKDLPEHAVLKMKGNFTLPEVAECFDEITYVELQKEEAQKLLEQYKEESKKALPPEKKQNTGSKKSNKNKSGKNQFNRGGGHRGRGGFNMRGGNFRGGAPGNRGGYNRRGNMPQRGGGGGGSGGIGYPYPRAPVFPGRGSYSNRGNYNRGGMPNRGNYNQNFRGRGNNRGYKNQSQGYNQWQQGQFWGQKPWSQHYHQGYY

Substance | solubility change mitosis (log2) [1] | thermal stability score [2, 5] | thermal stability score ([2]; cell cycle stage: mitosis) | solubility in G1/S (log2) [3] | melting temperature ([4]; cell cycle stage: G1/S) | melting temperature ([4]; cell cycle stage: mitosis)
DOCK7 | -0.188 | 0.562 | 1.42 | -0.219 | 48.2 °C | 49 °C
DYNC1H1 | -0.141 | 0.0561 | 2.96 | -0.318 | 51.8 °C | 51.2 °C
EED | 0.102 | 1.42 | 1.21 | -0.587 | 49.7 °C | 50.2 °C
EHBP1 | -0.0155 | 0.393 | 0.935 | 0.0745 | 50.3 °C | 52.4 °C
EHBP1L1 | -0.0696 | -1.13 | 2.05 | -0.0555 | 49.7 °C | 49.1 °C
ERP29 | 0.169 | 2.19 | -0.433 | 0.456 | 54.6 °C | 55.7 °C
FAM136A | 0.0886 | -3.91 | -5.74 | 0.101 | 52.9 °C | 53.3 °C
FAM208A | 0.524 | 0.605 | 0.529 | -0.847 | 49.7 °C | 50.2 °C
FNDC3B | 0.0529 | 1.73 | 3.59 | -0.0341 | 47.9 °C | 50.5 °C
GAPDH | -0.0817 | -2.02 | -3.87 | 0.191 | 59.5 °C | 60.3 °C
GCC2 | -0.00143 | 0.337 | 1.48 | 0.461 | 48.9 °C | 49.4 °C
GLUD1 | -0.0663 | 2.33 | -0.967 | 0.197 | 57.5 °C | 57.2 °C
GNL2 | 1.08 | 4.89 | 6.37 | -2.3 | 51.2 °C | 52.7 °C
GTF3C1 | -0.00776 | 1.22 | 3.47 | -0.378 | 47.5 °C | 49.4 °C
HDGFRP2 | 0.275 | -0.27 | -1.13 | -0.376 | 54.3 °C | 53.9 °C
HECTD1 | -0.16 | 0.479 | -0.0167 | -0.212 | 50.4 °C | 50.4 °C
HINT3 | -0.161 | -1.15 | -1.14 | 0.186 | 55.1 °C | 54.7 °C
HNRNPU | 0.232 | 7.74 | 17.8 | -0.381 | 47.1 °C | 49.5 °C
HSP90AB1 | -0.125 | 0.311 | 0.779 | -0.0892 | 51.3 °C | 51.1 °C
HSPA5 | 0.0735 | 3.25 | 3.15 | 0.316 | 55.5 °C | 56.9 °C

Substance | solubility change mitosis (log2) [1] | thermal stability score [2, 5] | thermal stability score ([2]; cell cycle stage: mitosis) | solubility in G1/S (log2) [3] | melting temperature ([4]; cell cycle stage: G1/S) | melting temperature ([4]; cell cycle stage: mitosis)
HUWE1 | -0.136 | 0.946 | 0.312 | -0.226 | 52 °C | 51.4 °C
KCTD3 | 0.0231 | -2.92 | -4.02 | -0.0736 | 57.6 °C | 56.7 °C
KIAA1429 | 0.17 | 0.289 | 0.336 | -0.435 | 47.9 °C | 50.4 °C
KPNA1 | -0.102 | 1.89 | 3.16 | 0.00375 | 49 °C | 49.7 °C
KPNA6 | -0.0516 | 1.85 | 4.59 | 0.0416 | 47.6 °C | 48.8 °C
LAMA1 | 0.051 | 5.02 | 10 | -0.219 | 51.7 °C | 52.9 °C
LAMB2 | -0.116 | 2.43 | 3.75 | 0.034 | 53 °C | 53.9 °C
LRP6 | 0.112 | -4.02 | -2.07 | 0.027 | 52.7 °C | 53.1 °C
LTN1 | -0.0806 | 0.696 | 1.04 | -0.347 | 50.1 °C | 48.8 °C
MAAAAAAAVAGVGRGGGGAEPRQERSRARGWAGVERSEGRRMEPGEELEEEGSPGGREDGFTAEHLAAEAMAADMDPWLVFDARTTPATELDAWLAKYPPSQVTRYGDPGSPNSEPVGWIAVYGQGYSPNSGDVQGLQAAWEALQTSGRPITPGTLRQLAITHHVLSGKWLMHLAPGFKLDHAWAGIARAVVEGQLQVAKVSPRAKEGGRQVICVYTDDFTDRLGVLEADSAIRAAGIKCLLTYKPDVYTYLGIYRANRWHLCPTLYESRFQLGGSARGSRVLDRANNVELT [C11ORF68] | -0.0653 | 0.634 | -0.663 | 0.585 | 51.6 °C | 51.9 °C
MTTEQRRSLQAFQDYIRKTLDPTYILSYMAPWFREEEVQYIQAEKNNKGPMEAATLFLKFLLELQEEGWFRGFLDALDHAGYSGLYEAIESWDFKKIEKLEEYRLLLKRLQPEFKTRIIPTDIISDLSECLINQECEEILQICSTKGMMAGAEKLVECLLRSDKENWPKTLKLALEKERNKFSELWIVEKGIKDVETEDLEDKMETSDIQIFYQEDPECQNLSENSCPPSEVSDTNLYSPFKPRNYQLELALPAMKGKNTIICAPTGCGKTFVSLLICEHHLKKFPQGQKGKVVFFANQIPVYEQQKSVFSKYFERHGYRVTGISGATAENVPVEQIVENNDIIILTPQILVNNLKKGTIPSLSIFTLMIFDECHNTSKQHPYNMIMFNYLDQKLGGSSGPLPQVIGLTASVGVGDAKNTDEALDYICKLCASLDASVIATVKHNLEELEQVVYKPQKFFRKVESRISDKFKYIIAQLMRDTESLAKRICKDLENLSQIQNREFGTQKYEQWIVTVQKACMVFQMPDKDEESRICKALFLYTSHLRKYNDALIISEHARMKDALDYLKDFFSNVRAAGFDEIEQDLTQRFEEKLQELESVSRDPSNENPKLEDLCFILQEEYHLNPETITILFVKTRALVDALKNWIEGNPKLSFLKPGILTGRGKTNQNTGMTLPAQKCILDAFKASGDHNILIATSVADEGIDIAQCNLVILYEYVGNVIKMIQTRGRGRARGSKCFLLTSNAGVIEKEQINMYKEKMMNDSILRLQTWDEAVFREKILHIQTHEKFIRDSQEKPKPVPDKENKKLLCRKCKALACYTADVRVIEECHYTVLGDAFKECFVSRPHPKPKQFSSFEKRAKIFCARQNCSHDWGIHVKYKTFEIPVIKIESFVVEDIATGVQTLYSKWKDFHFEKIPFDPAEMSK [DDX58] | -0.199 | 0.775 | 0.756 | -0.211 |  | 
MVDRLANSEANTRRISIVENCFGAAGQPLTIPGRVLIGEGVLTKLCRKKPKARQFFLFNDILVYGNIVIQKKKYNKQHIIPLENVTIDSIKDEGDLRNGWLIKTPTKSFAVYAATATEKSEWMNHINKCVTDLLSKSGKTPSNEHAAVWVPDSEATVCMRCQKAKFTPVNRRHHCRKCGFVVCGPCSEKRFLLPSQSSKPVRICDFCYDLLSAGDMATCQPARSDSYSQSLKSPLNDMSDDDDDDDSSD [PLEKHF2] | -0.0311 | 0.212 | 0.829 | 0.163 |  | 
MWHEARKHERKLRGMMVDYKKRAERRREYYEKIKKDPAQFLQVHGRACKVHLDSAVALAAESPVNMMPWQGDTNNMIDRFDVRAHLDHIPDYTPPLLTTISPEQESDERKCNYERYRGLVQNDFAGISEEQCLYQIYIDELYGGLQRPSEDEKKKLAEKKASIGYTYEDSTVAEVEKAAEKPEEEESAAEEESNSDEDEVIPDIDVEVDVDELNQEQVADLNKQATTYGMADGDFVRMLRKDKEEAEAIKHAKALEEEKAMYSGRRSRRQRREFREKRLRGRKISPPSYARRDSPTYDPYKRSPSESSSESRSRSRSPTPGREEKITFITSFGGSDEEAAAAAAAAAASGVTTGKPPAPPQPGGPAPGRNASARRRSSSSSSSSSASRTSSSRSSSRSSSRSRRGGGYYRSGRHARSRSRSWSRSRSRSRRYSRSRSRGRRHSGGGSRDGHRYSRSPARRGGYGPRRRSRSRSHSGDRYRRGGRGLRHHSSSRSRSSWSLSPSRSRSLTRSRSHSPSPSQSRSRSRSRSQSPSPSPAREKLTRPAASPAVGEKLKKTEPAAGKETGAAKPKLTPQEKLKLRMQKALNRQFKADKKAAQEKMIQQEHERQEREDELRAMARKIRMKERERREKEREEWERQYSRQSRSPSPRYSREYSSSRRRSRSRSRSPHYRH [CLASRP] | 0.526 | 0.728 | 0.776 | -0.572 |  | 
NHSL1 | -0.0684 | 0.447 | 1.09 | -0.0561 |  | 
PPL | 0.304 | -0.748 | 1.36 | -0.342 |  | 
SVIL | 0.176 | -0.947 | 0.478 | -1.65 |  | 
TACC1 | -0.0581 | -4.04 | -4.77 | 0.335 |  | 
THBS1 | 0.0125 | 4.61 | 5.07 | -0.19 |  | 
URB2 | 0.744 | 1.35 | 1.43 | -1.43 |  | 
